Assay results from patent publication US9012420B2, “Aptamer for chymase, and use thereof” (Ribomic Inc., priority 2009, dated 2015).

Experiments:
chymase [1] = molecular target: T1, chymase (Homo sapiens, UniProt P23946 P23946:22-247); experiment: inhibition; Suc-AAPF-MCA, 37 C, solution C; conditions: tags: recombinant, expressed in yeast, SIGMA
T1 sequence: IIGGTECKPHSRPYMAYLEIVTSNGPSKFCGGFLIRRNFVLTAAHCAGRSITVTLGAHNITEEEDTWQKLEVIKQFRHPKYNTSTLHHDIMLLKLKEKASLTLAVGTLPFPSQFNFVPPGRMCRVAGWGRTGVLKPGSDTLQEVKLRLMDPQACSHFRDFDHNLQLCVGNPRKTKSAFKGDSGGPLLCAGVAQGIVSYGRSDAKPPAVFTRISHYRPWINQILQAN
Method: Here, Suc is a protecting succinyl group, and MCA is a 4-methylcoumaryl-7-amide group; upon cleavage of the C-terminal side of phenylalanine, AMC (7-amino-4-methyl-coumarine) is released. By detecting the fluorescence of this AMC, the enzyme activity of chymase can be determined. The assay was performed using a 96-well plate (F16 Black Maxisorp Fluoronunc, manufactured by Nunc), with a reaction mixture volume of 100 μL, in solution C as a buffer solution. First, each nucleic acid was serially diluted to 0.0027-2 μM concentrations in solution C to obtain 50 μL solutions. After 10 μL of the 1 mM substrate prepared in solution C was added thereto, the plate was set to the microplate reader SpectraMax190 (manufactured by Molecular Devices Corporation), and incubated at 37° C. for 5 minutes. Separately, 0.05 μg (or 0.005 μg) of chymase (recombinant, manufactured by SIGMA) was diluted in solution C to obtain a 40 μL chymase solution, and incubated at 37° C. for 5 minutes. The chymase solution was added to the mixture of the nucleic acid and substrate to initiate an enzyme reaction. The final chymase concentration in the reaction mixture was 16.7 nM (or 1.67 nM), the final substrate concentration being 100 μM. The plate containing the reaction mixture was set to the microplate reader SpectraMax190 (manufactured by Molecular Devices Corporation), and examined for time-dependent changes in the fluorescence intensity at 37° C. for 5 minutes (or 30 minutes) (excitation wavelength 380 nm, detection wavelength 460 nm). A linear approximation of the increase in the fluorescence of the AMC released from the substrate by chymase activity was generated, and its slope was taken as the initial velocity […]. For control, samples were treated and analyzed in the same manner in two cases: use of a 30N or 40N (a nucleotide of 30 or 40 consecutive bases represented by N; N is A, G, C or T) nucleic acid pool (negative control), and use of chymostatin, a known chymotrypsin-like serine protease inhibitor (positive control). Taking the initial reaction velocity without the nucleic acid and inhibitor (V_0) as a 100% enzyme activity, the inhibitory rate of each test substance was calculated using the following equation: […]
The chymase inhibitory activity was measured in the same manner as in Example 3.

chymase [2] = molecular target: T1, chymase; experiment: inhibition; angiotensin I; recombinant 0.237; conditions: tags: human skin mast cell, Calbiochem
chymase [3] = molecular target: T1, chymase; experiment: inhibition; angiotensin I; recombinant 0.310; conditions: tags: human skin mast cell, Calbiochem; label: 5' biotin
chymase [4] = molecular target: T1, chymase; experiment: inhibition; angiotensin I; recombinant 0.057; conditions: tags: human skin mast cell, Calbiochem
chymase [5] = molecular target: T1, chymase; experiment: inhibition; angiotensin I; recombinant 0.078; conditions: tags: human skin mast cell, Calbiochem
Method: (§1) The total volume of solution for an enzyme reaction in the assay was set to 50 μL, and the reaction was performed in solution C buffer. First, 0.3-0.75 ng of chymase (recombinant, (manufactured by SIGMA) or native (manufactured by Calbiochem)) was diluted with solution C to give 5 μL thereof. Here, the recombinant is chymase expressed by yeast, and the native is chymase purified from human skin mast cell. The nucleic acid was serially diluted with solution C at a concentration of 0.0027-2 μM to give 25 μL thereof. The chymase solution (5 μL) and the nucleic acid solution (25 μL) were mixed, and the mixture was incubated at 37° C. for 5 min. […] The whole mixture was centrifuged at 4° C., 14000 rpm for 10 min, and the supernatant (30 μL) was used for the next fluorescence induction reaction.
(§2) The above-mentioned supernatant (30 μL) was added to a 96 well plate (black, manufactured by Costar), a solution (15 μL) of 2% o-phthalaldehyde (manufactured by SIGMA) in methanol and 0.3M NaOH solution (170 μL) were added to each well, and the mixture was incubated at room temperature for 10 min. […] The plate was set on a microplate reader SpectraMax190 (manufactured by Molecular device) and the fluorescence intensity was measured at an excitation wavelength of 355 nm and a fluorescence wavelength of 460 nm.

chymase [6] = molecular target: T1, chymase; experiment: inhibition; angiotensin I; recombinant 0.039; conditions: tags: human skin mast cell, Calbiochem
chymase [7] = molecular target: T1, chymase; experiment: inhibition; angiotensin I; recombinant 0.377; conditions: tags: human skin mast cell, Calbiochem
Method: as §1, §2

chymase [8] = molecular target: T1, chymase; experiment: inhibition; angiotensin I; recombinant 0.210; conditions: tags: human skin mast cell, Calbiochem
Method: as §1, §2

chymase [9] = molecular target: T1, chymase; experiment: inhibition; angiotensin I; recombinant 0.394; conditions: tags: human skin mast cell, Calbiochem
Method: as §1, §2

chymase [10] = molecular target: T1, chymase; experiment: inhibition; angiotensin I; recombinant 0.414; conditions: tags: human skin mast cell, Calbiochem
Method: as §1, §2

chymase [11] = molecular target: T1, chymase; experiment: inhibition; angiotensin I; recombinant 0.326; conditions: tags: human skin mast cell, Calbiochem
Method: as §1, §2

chymase [12] = molecular target: T1, chymase; experiment: inhibition; angiotensin I; recombinant 0.153; conditions: tags: human skin mast cell, Calbiochem
Method: as §1, §2

chymase [13] = molecular target: T1, chymase; experiment: inhibition; angiotensin I; recombinant 0.361; conditions: tags: human skin mast cell, Calbiochem
Method: as §1, §2

chymase [14] = molecular target: T1, chymase; experiment: inhibition; angiotensin I; recombinant 0.085; conditions: tags: human skin mast cell, Calbiochem
chymase [15] = molecular target: T1, chymase; experiment: inhibition; angiotensin I; recombinant 0.137; conditions: tags: human skin mast cell, Calbiochem
chymase [16] = molecular target: T1, chymase; experiment: inhibition; angiotensin I; recombinant 0.239; conditions: tags: human skin mast cell, Calbiochem
Method: as §1, §2

chymase [17] = molecular target: T1, chymase; experiment: inhibition; angiotensin I; recombinant 0.419; conditions: tags: human skin mast cell, Calbiochem; label: 3' biotin
chymase [18] = molecular target: T1, chymase; experiment: inhibition; angiotensin I; recombinant 0.119; conditions: tags: human skin mast cell, Calbiochem
Method: as §1, §2

chymase [19] = molecular target: T1, chymase; experiment: inhibition; angiotensin I; recombinant 0.125; conditions: tags: human skin mast cell, Calbiochem
Method: as §1, §2

chymase [20] = molecular target: T1, chymase; experiment: inhibition; angiotensin I; recombinant 0.080; conditions: tags: human skin mast cell, Calbiochem
chymase [21] = molecular target: T1, chymase; experiment: inhibition; angiotensin I; recombinant 0.687; conditions: tags: human skin mast cell, Calbiochem
Method: as §1, §2

chymase [22] = molecular target: T1, chymase; experiment: inhibition; angiotensin I; recombinant 0.328; conditions: tags: human skin mast cell, Calbiochem
Method: as §1, §2

chymase [23] = molecular target: T1, chymase; experiment: inhibition; angiotensin I; recombinant 0.289; conditions: tags: human skin mast cell, Calbiochem
Method: as §1, §2

chymase [24] = molecular target: T1, chymase; experiment: inhibition; angiotensin I; recombinant 0.426; conditions: tags: human skin mast cell, Calbiochem; label: 5' biotin
chymase [25] = molecular target: T1, chymase; experiment: inhibition; angiotensin I; recombinant 0.089; conditions: tags: human skin mast cell, Calbiochem
Method: as §1, §2

## GGGUUAGAUAGAGUUAAAAACCC (ssRNA, 2'-F U and C; 2'-OMe 1-3,7,8,10,13,16-20; PS 5-6) [56(22)]
Chymase [1]
  IC50: 52 nM
Chymase [2]
  IC50: 563 nM

## GGGUUAGAUAGAGUUAAAAACCC (mixed, 2'-F U and C; 2'-OMe 1-3,7,10,13,16-20; DNA A8; 5' and 3' idT) [56(51)]
Chymase [1]; label: 5' biotin
  IC50: 29 nM
Chymase [3]
  IC50: 429 nM

## GGGUUAGAUAGAGUUAAAAACCC (ssRNA, 2'-F U and C; 2'-OMe 1-3,7,10,13,16-20; PS 6-7; 5' and 3' idT) [56(34)]
Chymase [1]
  IC50: 31 nM
Chymase [4]
  IC50: 162 nM

## GGGUUAGAUAGAGUUAAAAACCC (ssRNA, 2'-F U and C; 2'-OMe 1-3,10,13,16-20; 5' and 3' idT) [56(32)]
Chymase [5]
  IC50: 185 nM

## GGGUUAGAUAGAGUUAAAAACCC (ssRNA, 2'-F U and C; 2'-OMe 1-3,10,13,16-20; PS 6-7; 5' and 3' idT) [56(35)]
Chymase [6]
  IC50: 120 nM
Chymase [1]
  IC50: 24 nM

## GGGUUAGAUAGAGUUAAAAACCC (ssRNA, 2'-F U and C; 2'-OMe 1-3,7,8,10,13,16-20; 5' idT; 3' PEG 40 kDa) [56(45)]
Chymase [1]
  IC50: 59 nM
Chymase [7]
  IC50: 303 nM

## GGGUUAGAUAGAGUUAAAAACCC (ssRNA, 2'-F U and C; 2'-OMe 1-3,8,10,13,16-20; 5' and 3' idT) [56(30)]
Chymase [1]
  IC50: 34 nM
Chymase [8]
  IC50: 521 nM

## GGGUUAGAUAGAGUUAAAAACCC (mixed, 2'-F U; 2'-OMe 1-3,7,8,10,13,16-20; DNA C21-C23; 5' and 3' idT) [56(48)]
Chymase [1]
  IC50: 36 nM
Chymase [9]
  IC50: 621 nM

B1: 56(44) (ssRNA)
RNA: GGGUUAGAUAGAGUUAAAAACCC
modifications: 2'-F U and C; 2'-OMe 1-3,7,8,10,13,16-20; 5' peptide 2 (Cys-Phe, disulfide); 3' idT
Chymase [10]
  IC50: 643 nM
Chymase [1]
  IC50: 42 nM

## GGGUUAGAUAGAGUUAAAAACCC (ssRNA, 2'-F U and C; 2'-OMe 1-3,7,8,10,13,16-20; 5' and 3' idT) [56(26)]
Chymase [1]
  IC50: 54 nM
Chymase [11]
  IC50: 743 nM

## GGGUUAGAUAGAGUUAAAAACCC (mixed, 2'-F U and C; 2'-OMe 1-3,7,10,13,16-20; DNA A8; 5' and 3' idT) [56(50)]
Chymase [1]
  IC50: 27 nM
Chymase [12]
  IC50: 325 nM

## GGGUUAGAUAGAGUUAAAAACCC (ssRNA, 2'-F U and C; 2'-OMe 1-3,7,8,10,13,16-20) [56(21)]
Chymase [1]
  IC50: 45 nM
Chymase [13]
  IC50: 722 nM

## GGGUUAGAUAGAGUUAAAAACCC (ssRNA, 2'-F U and C; 2'-OMe 1-3,8,10,13,16-20; PS 6-7; 5' and 3' idT) [56(33)]
Chymase [1]
  IC50: 35 nM
Chymase [14]
  IC50: 291 nM

## GGGUUAGAUAGAGUUAAAAACCC (ssRNA, 2'-F U and C; 2'-OMe 1-3,7,8,10,13,16-20; PS 6-7; 5' and 3' idT) [56(28)]
Chymase [1]
  IC50: 44 nM
Chymase [15]
  IC50: 410 nM

## GGGTTAGAUAGAGUUAAAAACCC (mixed, 2'-F U and C; 2'-OMe 1-3,7,8,10,13,16-20; DNA T4,T5; 5' and 3' idT) [SEQ 70]
Chymase [16]
  IC50: 478 nM

## GGGUUAGAUAGAGUUAAAAACCC (ssRNA, 2'-F U and C; 2'-OMe 1-3,7,8,10,13,16-20; 5' and 3' idT) [56(47)]
Chymase [1]; label: 3' biotin
  IC50: 37 nM
Chymase [17]
  IC50: 542 nM

## GGGUUAGAUAGAGUUAAAAACCC (ssRNA, 2'-F U and C; 2'-OMe 1-3,7,8,10,13,16-20; PS 6-7) [56(23)]
Chymase [1]
  IC50: 32 nM
Chymase [18]
  IC50: 360 nM

## AAAGGGUUAGAUAGAGUUAAAAACCC (ssRNA, 2'-F U and C; 2'-OMe 1-6,10,11,13,16,19-23; PS 9-10; 5' and 3' idT) [69(1)]
Chymase [1]
  IC50: 44 nM
Chymase [19]
  IC50: 480 nM

## GGGUUAGAUAGAGUUAAAAACCC (ssRNA, 2'-F U and C; 2'-OMe 1-3,7,8,10,13,16-20; PS 5-6,6-7; 5' and 3' idT) [56(29)]
Chymase [1]
  IC50: 36 nM
Chymase [20]
  IC50: 366 nM

## GGGUUAGAUAGAGUUAAAAACCC (ssRNA, 2'-F U and C; 2'-OMe 1-3,7,8,10,13,16-20; 5' cholesterol; 3' idT) [56(42)]
Chymase [1]
  IC50: 71 nM
Chymase [21]
  IC50: 601 nM

B2: 56(43) (ssRNA)
RNA: GGGUUAGAUAGAGUUAAAAACCC
modifications: 2'-F U and C; 2'-OMe 1-3,7,8,10,13,16-20; 5' peptide 1 (Phe-Cys, disulfide); 3' idT
Chymase [1]
  IC50: 35 nM
Chymase [22]
  IC50: 591 nM

## AAAGGGUUAGAUAGAGUUAAAAACCC (ssRNA, 2'-F U and C; 2'-OMe 1-6,10,11,13,16,19-23; 5' and 3' idT) [69(2)]
Chymase [1]
  IC50: 48 nM
Chymase [23]
  IC50: 752 nM

## GGGUUAGAUAGAGUUAAAAACCC (ssRNA, 2'-F U and C; 2'-OMe 1-3,7,8,10,13,16-20; 5' and 3' idT) [56(46)]
Chymase [1]; label: 5' biotin
  IC50: 49 nM
Chymase [24]
  IC50: 742 nM

## GGGUUAGAUAGAGUUAAAAACCC (ssRNA, 2'-F U and C; 2'-OMe 1-3,7,10,13,16-20; 5' and 3' idT) [56(31)]
Chymase [25]
  IC50: 266 nM
